Measured values taken from patent US20070202045A1 (published 2007).
Bridges are numbered along the chain shown (N, C = ends). Where no end group is shown, it is not given here.

B1: SA07 (peptide)
peptide: QGLIGDICLPRWGCLWGDSV-NH2
modifications: disulfide 8-14 (inferred)
notes: synthetic; disulfide oxidised; printed ...GDSV here

Biological target: T1, rabbit albumin (rabbit, UniProt P49065 25-608)
T1 construct: bought (Sigma); also called rabbit SA; BuSA
Assay: SA08b competition ELISA

T1 sequence (P49065 25-608 limits assumed): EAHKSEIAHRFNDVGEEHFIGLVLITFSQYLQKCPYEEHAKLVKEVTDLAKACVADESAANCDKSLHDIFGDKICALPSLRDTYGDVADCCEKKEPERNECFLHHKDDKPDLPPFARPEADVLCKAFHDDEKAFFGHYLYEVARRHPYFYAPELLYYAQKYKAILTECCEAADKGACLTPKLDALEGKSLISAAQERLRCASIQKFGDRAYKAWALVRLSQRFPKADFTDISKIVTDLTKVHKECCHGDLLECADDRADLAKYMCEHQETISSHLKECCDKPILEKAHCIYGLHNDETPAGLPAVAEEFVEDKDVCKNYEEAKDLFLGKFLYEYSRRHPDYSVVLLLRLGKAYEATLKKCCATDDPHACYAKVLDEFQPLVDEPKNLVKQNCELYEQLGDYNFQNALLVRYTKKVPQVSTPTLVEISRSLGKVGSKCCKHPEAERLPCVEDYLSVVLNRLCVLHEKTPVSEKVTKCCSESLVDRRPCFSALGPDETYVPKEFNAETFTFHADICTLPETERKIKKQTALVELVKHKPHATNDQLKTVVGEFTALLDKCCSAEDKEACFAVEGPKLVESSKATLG

| Binder | fold improvement of IC50 over the core sequence (SA34 and SA19) [fold] |
| --- | --- |
| Ac-DICLPRWGCLWED-NH2 (disulfide 3-9 (inferred), synthetic) [SA26] | ~8.6 |
| Ac-RLIEDICLPRWGCLWED-NH2 (disulfide 7-13 (inferred), synthetic) [SA22] | 60 |
| Ac-RLIEDICLPRWGCL-NH2 (disulfide 7-13 (inferred), synthetic) [SA33] | ~6 |

Biological target: T2, mouse albumin (mouse, UniProt P07724 25-608)
T2 construct: bought (Sigma); also called MSA; MuSA
Assay: SA08b competition ELISA

T2 sequence (P07724 25-608 limits assumed): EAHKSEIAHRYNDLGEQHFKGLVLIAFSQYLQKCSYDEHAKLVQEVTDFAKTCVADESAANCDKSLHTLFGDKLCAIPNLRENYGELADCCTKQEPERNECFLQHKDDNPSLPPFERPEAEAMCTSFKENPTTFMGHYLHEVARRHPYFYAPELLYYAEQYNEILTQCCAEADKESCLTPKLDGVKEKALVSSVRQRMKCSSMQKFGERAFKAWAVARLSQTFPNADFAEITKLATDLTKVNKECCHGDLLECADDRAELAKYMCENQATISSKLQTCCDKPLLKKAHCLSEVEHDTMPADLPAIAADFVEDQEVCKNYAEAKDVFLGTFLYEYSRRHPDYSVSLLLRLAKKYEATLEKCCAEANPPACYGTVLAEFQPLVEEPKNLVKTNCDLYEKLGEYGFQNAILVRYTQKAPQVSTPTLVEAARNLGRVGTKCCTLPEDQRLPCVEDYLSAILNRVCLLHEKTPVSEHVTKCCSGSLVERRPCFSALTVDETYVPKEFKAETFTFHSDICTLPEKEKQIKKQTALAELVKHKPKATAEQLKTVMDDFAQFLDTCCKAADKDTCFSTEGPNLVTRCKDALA

| Binder | IC50 [nM] |
| --- | --- |
| B1 | 6 |
| Ac-EDICLPRWGCLWEDD-NH2 (disulfide 4-10 (inferred), synthetic; disulfide oxidised) [SA09] | 6 |
| DICLPRWGCLW-NH2 (disulfide 3-9 (inferred), synthetic; disulfide oxidised) [SA04] | 40 |
| Ac-QGLIGDICLPRWGCLWGDSVK-NH2 (disulfide 8-14 (inferred), synthetic; disulfide oxidised) [SA08] | 10 |
| Ac-RLMEDICLARWGCLWEDD-NH2 (disulfide 7-13 (inferred), synthetic; disulfide oxidised) [SA13] | 188 |
| Ac-MEDICLPRWGCLWED-NH2 (disulfide 5-11 (inferred), synthetic; disulfide oxidised) [SA12] | 13 |
| MEDICLPRWGCLWED-NH2 (disulfide 5-11 (inferred), synthetic; disulfide oxidised) [SA05] | 6 |
| Ac-MEDICLPRWGCLWEDD-NH2 (disulfide 5-11 (inferred), synthetic; disulfide oxidised) [SA11] | 17 |
| QRLMEDICLPRWGCLWEDDF-NH2 (disulfide 8-14, synthetic; disulfide oxidised) [SA06] | 8 |

Biological target: T3, rat albumin (rat, UniProt P02770 25-608)
T3 construct: bought (Sigma); also called rat SA; RSA
Assay: SA08b competition ELISA

T3 sequence (P02770 25-608 limits assumed): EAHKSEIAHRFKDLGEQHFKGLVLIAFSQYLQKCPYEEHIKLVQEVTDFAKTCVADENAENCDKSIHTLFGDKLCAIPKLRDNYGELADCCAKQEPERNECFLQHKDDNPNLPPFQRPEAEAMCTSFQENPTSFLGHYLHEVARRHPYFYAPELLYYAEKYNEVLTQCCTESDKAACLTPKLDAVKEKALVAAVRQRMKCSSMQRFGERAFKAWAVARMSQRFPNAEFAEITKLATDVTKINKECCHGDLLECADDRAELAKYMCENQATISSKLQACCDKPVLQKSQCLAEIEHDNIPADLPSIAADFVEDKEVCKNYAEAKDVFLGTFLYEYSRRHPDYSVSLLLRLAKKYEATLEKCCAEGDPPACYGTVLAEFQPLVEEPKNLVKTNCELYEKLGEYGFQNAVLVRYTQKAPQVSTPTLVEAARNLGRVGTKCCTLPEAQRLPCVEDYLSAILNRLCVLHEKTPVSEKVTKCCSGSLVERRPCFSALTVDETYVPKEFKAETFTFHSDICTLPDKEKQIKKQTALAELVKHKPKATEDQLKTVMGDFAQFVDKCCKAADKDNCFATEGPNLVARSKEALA

| Binder | IC50 [nM] |
| --- | --- |
| B1 | 35 |
| Ac-EDICLPRWGCLWEDD-NH2 (disulfide 4-10 (inferred), synthetic; disulfide oxidised) [SA09] | 258 |
| DICLPRWGCLW-NH2 (disulfide 3-9 (inferred), synthetic; disulfide oxidised) [SA04] | 787 |
| Ac-QGLIGDICLPRWGCLWGDSVK-NH2 (disulfide 8-14 (inferred), synthetic; disulfide oxidised) [SA08] | 68 |
| Ac-RLMEDICLPRWGCLWEDD-NH2 (disulfide 7-13 (inferred), synthetic; disulfide oxidised) [SA10] | 77 |
| Ac-RLMEDICLARWGCLWEDD-NH2 (disulfide 7-13 (inferred), synthetic; disulfide oxidised) [SA13] | 2480 |
| Ac-MEDICLPRWGCLWED-NH2 (disulfide 5-11 (inferred), synthetic; disulfide oxidised) [SA12] | 205 |
| MEDICLPRWGCLWED-NH2 (disulfide 5-11 (inferred), synthetic; disulfide oxidised) [SA05] | 161 |
| Ac-MEDICLPRWGCLWEDD-NH2 (disulfide 5-11 (inferred), synthetic; disulfide oxidised) [SA11] | 232 |
| QRLMEDICLPRWGCLWEDDF-NH2 (disulfide 8-14, synthetic; disulfide oxidised) [SA06] | 68 |

Biological target: T1, rabbit albumin
Assay: SA08b competition ELISA
Remark: another data set of the same source

| Binder | IC50 [nM] |
| --- | --- |
| B1 | 30 |
| Ac-EDICLPRWGCLWEDD-NH2 (disulfide 4-10 (inferred), synthetic; disulfide oxidised) [SA09] | 1690 |
| DICLPRWGCLW-NH2 (disulfide 3-9 (inferred), synthetic; disulfide oxidised) [SA04] | 8540 |
| Ac-QGLIGDICLPRWGCLWGDSVK-NH2 (disulfide 8-14 (inferred), synthetic; disulfide oxidised) [SA08] | 63 |
| Ac-RLMEDICLPRWGCLWEDD-NH2 (disulfide 7-13 (inferred), synthetic; disulfide oxidised) [SA10] | 86 |
| Ac-RLMEDICLARWGCLWEDD-NH2 (disulfide 7-13 (inferred), synthetic; disulfide oxidised) [SA13] | 3200 |
| Ac-MEDICLPRWGCLWED-NH2 (disulfide 5-11 (inferred), synthetic; disulfide oxidised) [SA12] | 1760 |
| MEDICLPRWGCLWED-NH2 (disulfide 5-11 (inferred), synthetic; disulfide oxidised) [SA05] | 804 |
| Ac-MEDICLPRWGCLWEDD-NH2 (disulfide 5-11 (inferred), synthetic; disulfide oxidised) [SA11] | 1210 |
| QRLMEDICLPRWGCLWEDDF-NH2 (disulfide 8-14, synthetic; disulfide oxidised) [SA06] | 128 |

Biological target: T2, mouse albumin
Assay: SA08b peptide competition ELISA

| Binder | IC50 [nM] |
| --- | --- |
| GEWWEDICLPRWGCLWEEED-NH2 (disulfide 8-14 (inferred), synthetic) [SA15] | 5 |
| Ac-QGLIGDICLPRWGCLWGDSVK-NH2 (disulfide 8-14 (inferred), synthetic; disulfide oxidised) [SA08] | 12 |
| Ac-RLIEDICLPRWGCLWEDD-NH2 (disulfide 7-13 (inferred), synthetic; disulfide oxidised) [SA21] | 7 |
| QRLMEDICLPRWGCLWEDDF-NH2 (disulfide 8-14, synthetic; disulfide oxidised) [SA06] | 6 |

Biological target: T1, rabbit albumin
Assay: SA08b peptide competition ELISA

| Binder | IC50 [nM] |
| --- | --- |
| GEWWEDICLPRWGCLWEEED-NH2 (disulfide 8-14 (inferred), synthetic) [SA15] | 13 |
| Ac-RLIEDICLPRWGCLWEDD-NH2 (disulfide 7-13 (inferred), synthetic; disulfide oxidised) [SA21] | 270 |
| QRLMEDICLPRWGCLWEDDF-NH2 (disulfide 8-14, synthetic; disulfide oxidised) [SA06] | 130 |

Biological target: T2, mouse albumin
Assay: SA08b competition ELISA
Remark: another data set of the same source

| Binder | IC50 [nM] |
| --- | --- |
| QRLMEDICLPRWGCLWEDDF-NH2 (disulfide 8-14, synthetic; disulfide oxidised) [SA06] | 8 |

Biological target: T3, rat albumin
Assay: SA08b competition ELISA
Remark: another data set of the same source

| Binder | IC50 [nM] |
| --- | --- |
| QRLMEDICLPRWGCLWEDDF-NH2 (disulfide 8-14, synthetic; disulfide oxidised) [SA06] | 68 |

Biological target: T1, rabbit albumin
Assay: SA08b competition ELISA
Remark: another data set of the same source

| Binder | IC50 [nM] |
| --- | --- |
| QRLMEDICLPRWGCLWEDDF-NH2 (disulfide 8-14, synthetic; disulfide oxidised) [SA06] | 128 |

Biological target: T1, rabbit albumin
Assay: SA08b competition ELISA
Remark: another data set of the same source

| Binder | IC50 [nM] |
| --- | --- |
| Ac-DICLPRWGCLWED-NH2 (disulfide 3-9 (inferred), synthetic) [SA26] | 3120 |
| Ac-RLIEDICLPRWGCLWED-NH2 (disulfide 7-13 (inferred), synthetic) [SA22] | 430 |
| Ac-RLIEDICLPRWGCLW-NH2 (disulfide 7-13 (inferred), synthetic) [SA31] | 200 |
| Ac-RLIEDICLPRWGCL-NH2 (disulfide 7-13 (inferred), synthetic) [SA33] | 4310 |
| DICLPRWGCLW-NH2 (disulfide 3-9 (inferred), synthetic; disulfide oxidised) [SA04] | 8540 |
| ICLPRWGCLW-NH2 (disulfide 2-8 (inferred), synthetic) [SA18] | 125000 |
| Ac-DICLPRWGCL-NH2 (disulfide 3-9 (inferred), synthetic) [SA34] | 28200 |
| DICLPRWGCL-NH2 (disulfide 3-9 (inferred), synthetic) [SA19] | 24500 |
| Ac-RLIEDICLPRWGCLWE-NH2 (disulfide 7-13 (inferred), synthetic) [SA29] | 400 |
| Ac-RLIEDICLPRWGCLWEDD-NH2 (disulfide 7-13 (inferred), synthetic; disulfide oxidised) [SA21] | 270 |
| Ac-ICLPRWGCLWED-NH2 (disulfide 2-8 (inferred), synthetic) [SA27] | 86700 |
| Ac-LIEDICLPRWGCLWED-NH2 (disulfide 6-12 (inferred), synthetic) [SA23] | 360 |
| Ac-EDICLPRWGCLWED-NH2 (disulfide 4-10 (inferred), synthetic) [SA25] | 2730 |
| Ac-EDICLPRWGCLW-NH2 (disulfide 4-10 (inferred), synthetic) [SA32] | 2170 |
| Ac-QRLIEDICLPRWGCLWEDDF-NH2 (disulfide 8-14 (inferred), synthetic) [SA20] | 260 |
| Ac-IEDICLPRWGCLWED-NH2 (disulfide 5-11 (inferred), synthetic) [SA24] | 1380 |
| Ac-IEDICLPRWGCLWE-NH2 (disulfide 5-11 (inferred), synthetic) [SA30] | 1800 |

Biological target: T3, rat albumin
Assay: SPR (BIAcore), albumin immobilized
From the text: (§1) Binding affinities between SA peptides and album were obtained using a BIAcore 3000 (BIAcore, Inc., Piscataway, N.J.). Albumin was captured in a CM5 chip using amine coupling at approximately 5000 resonance units (RU).
(§2) The signal from an injection passing over an uncoupled cell was subtracted from that of an immobilized cell to generate sensongrams corresponding to the amount of peptide bound as a function of time. The running buffer, PBS containing 0.05% TWEEN-20T, was used for all sample dilutions. BIAcore kinetic evaluation software (v 3.1) was used to determine the dissociation constant (Kd) from the association and dissociation rates, using a one to one binding model.

| Binder | Kd [nM] |
| --- | --- |
| GEWWEDICLPRWGCLWEEED-NH2 (disulfide 8-14 (inferred), synthetic) [SA15] | 150 |
| Ac-QGLIGDICLPRWGCLWGDSVK-NH2 (disulfide 8-14 (inferred), synthetic; disulfide oxidised) [SA08] | 158 |
| QRLMEDICLPRWGCLWEDDF-NH2 (disulfide 8-14, synthetic; disulfide oxidised) [SA06] | 229 |

Biological target: T4, human albumin (human, UniProt P02768 25-609)
T4 construct: bought (Sigma); also called human SA; HuSA
Assay: SPR (BIAcore), albumin immobilized
From the text: as §1, §2

| Binder | Kd [nM] |
| --- | --- |
| GEWWEDICLPRWGCLWEEED-NH2 (disulfide 8-14 (inferred), synthetic) [SA15] | 878 |
| Ac-QGLIGDICLPRWGCLWGDSVK-NH2 (disulfide 8-14 (inferred), synthetic; disulfide oxidised) [SA08] | 858 |

Biological target: T1, rabbit albumin
Assay: SPR (BIAcore), albumin immobilized
From the text: as §1, §2

| Binder | Kd [nM] |
| --- | --- |
| GEWWEDICLPRWGCLWEEED-NH2 (disulfide 8-14 (inferred), synthetic) [SA15] | 65 |
| Ac-QGLIGDICLPRWGCLWGDSVK-NH2 (disulfide 8-14 (inferred), synthetic; disulfide oxidised) [SA08] | 108 |
| Ac-RLIEDICLPRWGCLWEDD-NH2 (disulfide 7-13 (inferred), synthetic; disulfide oxidised) [SA21] | 320 |
| QRLMEDICLPRWGCLWEDDF-NH2 (disulfide 8-14, synthetic; disulfide oxidised) [SA06] | 143 |

Biological target: T3, rat albumin
Assay: phage ELISA

| Binder | binding result |
| --- | --- |
| DLCLRDWGCLW (not fully specified (C-terminus); cysteine pairing not given here) [RC] | binds |
